The chains are these.
T1: transforming growth factor-beta 2 (TGF-β2) (UniProt P61812 303-414)
T1 construct: also called TGFb2; TGFB2
T1 sequence (looked up): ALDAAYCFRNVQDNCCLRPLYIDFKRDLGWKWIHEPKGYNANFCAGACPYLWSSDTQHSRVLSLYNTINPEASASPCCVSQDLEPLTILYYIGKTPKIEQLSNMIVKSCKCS

T2: Growth and Differentiation Factor 15 (GDF15) (UniProt Q99988 197-308, limits assumed)
T2 construct: also called MIC-1; MIC1
T2 sequence (looked up): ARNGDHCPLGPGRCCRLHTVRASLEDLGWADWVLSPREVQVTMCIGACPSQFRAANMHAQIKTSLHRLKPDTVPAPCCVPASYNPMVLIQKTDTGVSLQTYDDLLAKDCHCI

T3: transforming growth factor-beta 3 (TGF-β3) (UniProt P10600 301-412)
T3 construct: also called TGFb3; TGFB3
T3 sequence (looked up): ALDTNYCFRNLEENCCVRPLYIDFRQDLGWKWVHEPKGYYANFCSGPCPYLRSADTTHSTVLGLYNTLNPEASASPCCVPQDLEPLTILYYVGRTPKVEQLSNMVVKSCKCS

B1: CLPTM1 peptide fragment of SEQ ID NO: 25 (peptide)
peptide: YEQSDEEQDSVKVALLETNPG
modifications: also: biotinylated, site not given here
B2: CLPTM1 peptide fragment of SEQ ID NO: 28 (peptide)
peptide: GDYYPIIYFNDYWNLQKDYYG
modifications: also: biotinylated, site not given here
notes: also called peptide 21
B3: CLPTM1 peptide fragment of SEQ ID NO: 31 (peptide)
peptide: FTDFNATSALFWEQHDLVYGG
modifications: also: biotinylated, site not given here
B4: CLPTM1 peptide fragment of SEQ ID NO: 29 (peptide)
peptide: WQVIKGVLFRIFIIWAISSWG
modifications: also: biotinylated, site not given here
B5: CLPTM1 peptide fragment of SEQ ID NO: 24 (peptide)
peptide: STKSPWNFLGDELYEQSDEEG
modifications: also: biotinylated, site not given here
B6: CLPTM1 peptide fragment of SEQ ID NO: 23 (peptide)
peptide: PLRVSFCPLSLWRWQLYAAQG
modifications: also: biotinylated, site not given here
B7: CLPTM1 peptide fragment of SEQ ID NO: 22 (peptide)
peptide: NDYWNLQKDYYPINESLASLG
modifications: also: biotinylated, site not given here
B8: CLPTM1 peptide fragment of SEQ ID NO: 26 (peptide)
peptide: LWRWQLYAAQSTKSPWNFLGG
modifications: also: biotinylated, site not given here
B9: CLPTM1 peptide fragment of SEQ ID NO: 27 (peptide)
peptide: YPINESLASLPLRVSFCPLSG
modifications: also: biotinylated, site not given here
notes: also called peptide 20
B10: CLPTM1 peptide fragment of SEQ ID NO: 30 (peptide)
peptide: RNLFPKDTLMNLHVYISEHEG
modifications: also: biotinylated, site not given here

Ends that are not written are not given here.

In the first experiment the target is T1, transforming growth factor-beta 2 …. In words: ELISA, peptide on streptavidin plate, ligand 100 ng/ml. The protocol: (§1) Biotinylated synthetic peptide fragments from CLPTM1 (JPT peptides, Germany) were immobilized in a streptavidin 96 well plate (#15500 Pierce) at 1 μM in PBS over night at +4° C. Plate was then washed 4 times in 300 μl PBS with 0.05% tween-20 (wash buffer). The plate was then blocked with PBS 1% BSA and 0.05% tween-20 (blocking buffer) for 1.5 hours at room temperature, then washed 4 times in wash buffer. Ligands GDF15, TGFb1, TGFb2 and TGFb3 (Abcam) were added in blocking buffer at 100 ng/ml and incubated at room temperature for 2 hours. The plate was then washed 8 times in 300 μL wash buffer with 2× NaCl. An anti-GDF15 antibody was added at 1 μg/ml (R&D Systems, goat polyclonal) or a pan-specific anti-TGFb antibody (R&D Systems, mouse 1 D11), and the plate incubated in blocking buffer for 1 hour at room temperature followed by washing with 4×300 μl wash buffer. HAF017 anti-goat-HRP antibody (to detect the anti-GDF15 antibody) or Santa Cruz sc-2005 Goat anti-mouse-HRP (to detect the pan-specific anti-TGFb antibody) was added and the plate incubated for 1 hour in blocking buffer followed by a wash. TMB substrate was added and stopped after 15 minutes with H₂SO₄. OD 450-620 was measured in an ELISA reader.
On the technique in general: ELISA stands for enzyme-linked immunosorbent assay.
With B1, the “ELISA OD450” value was found to be 0.007 OD450.

B2: the “ELISA OD450” value is 0.164 OD450.

Take B3: the “ELISA OD450” value was determined as 0.014 OD450.

B4: the “ELISA OD450” value is 0.006 OD450.

For the molecule B5, the “ELISA OD450” value was 0.007 OD450.

As for B6, the “ELISA OD450” value stood at 0.066 OD450.

Take B7: the “ELISA OD450” value turned out to be 0.005 OD450.

As to B8, the “ELISA OD450” value is 0.008 OD450.

In the case of B9, the “ELISA OD450” value came to 0.025 OD450.

Consider B10, for which the “ELISA OD450” value stood at 0.009 OD450.

A further experiment deals with T2, Growth and Differentiation Factor 15 …. The description is as above. The protocol:
as §1
For B1, the “ELISA OD450” value came to 0.022 OD450.

Regarding B2, the “ELISA OD450” value amounted to 0.507 OD450.

B3: the “ELISA OD450” value was determined as 0.061 OD450.

B4: the “ELISA OD450” value stood at 0.023 OD450.

As to B5, the “ELISA OD450” value was 0.053 OD450.

For the molecule B6, the “ELISA OD450” value was 0.063 OD450.

Turning to B7, the “ELISA OD450” value was determined as 0.038 OD450.

In the case of B8, the “ELISA OD450” value came out at 0.033 OD450.

Take B9: the “ELISA OD450” value was 0.22 OD450.

With B10, the “ELISA OD450” value was 0.055 OD450.

The target in a further experiment is T4, transforming growth factor-beta 1 (TGF-β1) (UniProt P01137 279-390).
T4 construct: also called TGFb1; TGFB1
T4 sequence (P01137 279-390 limits assumed): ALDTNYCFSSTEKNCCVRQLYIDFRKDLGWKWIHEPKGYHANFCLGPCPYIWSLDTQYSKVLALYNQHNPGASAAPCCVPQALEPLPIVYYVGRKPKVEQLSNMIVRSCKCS
The description is as above. As for the experimental part:
as §1
For the molecule B1, the “ELISA OD450” value was determined as 0.01 OD450.

With B2, the “ELISA OD450” value amounted to 1.54 OD450.

Regarding B3, the “ELISA OD450” value is 0.032 OD450.

As for B4, the “ELISA OD450” value stood at 0.01 OD450.

On to B5, for which the “ELISA OD450” value was determined as 0.018 OD450.

Regarding B6, the “ELISA OD450” value amounted to 0.083 OD450.

Take B7: the “ELISA OD450” value stood at 0.017 OD450.

For B8, the “ELISA OD450” value was 0.013 OD450.

For the molecule B9, the “ELISA OD450” value came out at 0.043 OD450.

Regarding B10, the “ELISA OD450” value came out at 0.015 OD450.

The target of another experiment is T3, transforming growth factor-beta 3 …. The description is as above. As for the experimental part: as §1
Take B1: the “ELISA OD450” value was 0.014 OD450.

As to B2, the “ELISA OD450” value came out at 0.151 OD450.

For the molecule B3, the “ELISA OD450” value stood at 0.029 OD450.

For the molecule B4, the “ELISA OD450” value stood at 0.019 OD450.

With B5, the “ELISA OD450” value turned out to be 0.012 OD450.

In the case of B6, the “ELISA OD450” value amounted to 0.016 OD450.

For the molecule B7, the “ELISA OD450” value is 0.025 OD450.

Consider B8, for which the “ELISA OD450” value turned out to be 0.011 OD450.

Turning to B9, the “ELISA OD450” value was 0.018 OD450.

Turning to B10, the “ELISA OD450” value stood at 0.041 OD450.

(Values after US20190328788A1 (GENAGON THERAPEUTICS, published 2019).)
